From US20230121197A1, “ANTIBODIES SPECIFICALLY BINDING THE CARBOXYMETHYLATED CATALYTIC SUBUNIT OF PROTEIN PHOSPHATASE 2A” (Medizinische Universität Wien, priority 2020, published 2023)

Experiments:
[1] = biological target: T1, C-terminal PP2Ac peptide Y307F, CGEPHVTRRTPDFFL (15-mer); test: Western blot of 100 ng BSA crosslinked with peptide, detected through 16B12
T1 construct: Non-carboxymethylated; Phe in place of Tyr307; Crosslinked to BSA in the Western blot; free or linked to BSA in the ELISA
T1 peptide: CGEPHVTRRTPDFFL
Procedure: 100 ng of BSA crosslinked with peptides (L309: […] (SEQ ID NO:49), Y307F: […] (SEQ ID NO.50), pY307: […]pYFL (SEQ ID NO:51) or meL309: […]-CH₃) (SEQ ID NO:49) was separated by 10% SDS-PAGE and transferred to nitrocellulose membrane (0.2 μm, GE Healthcare). […] The membranes were blocked in 3% non-fatty dry milk (NFDM) in TBS-Tween for 1 h at RT and incubated with single clone hybridoma cell culture supernatant, clone 7C10-C5 diluted 1:100 in 0.5% NFDM in TBS-T (7C10 X63), recombinant single chain variable fragment of antibody 7C10-C5, undiluted (7C10 scFvs), recombinant bivalent single chain variable fragment 7C10-C5, undiluted (7C10 bi-scFvs) or single clone hybridoma cell culture supernatant, clone 1D7 (binding to non-carboxymethylated PP2Ac) 1:100 in 0.5% NFDM in TBS-T o/n at 4° C. After washing 3×5 min in TBS-T, blots incubated with recombinant antibodies were incubated with mouse anti-HA monoclonal antibody 16B12 (recognizing the hemagglutinin (HA) tag on the recombinant antibody), 1:10000 in 0.5% NFDM in TBS-T 2 h at room temperature. After washing 3×5 min in TBS-T, incubation with anti-mouse-HRP coupled secondary antibody for 1 h at RT and 3×10 min washes in TBS-T was performed. ECL was performed with GE Healthcare ECL reagents (RPN2106) mixed 1:3 with Clarity™ Western ECL Substrate, 500 ml #1705061 (Biorad). Signals were detected by exposure of X-ray films. […]

PP2Ac = biological target: T2, PP2Ac (Homo sapiens, UniProt P67775); test: Western blot of human cell lysates (HAP1, HEK293; NaOH treatment, Lcmt-1-KO); assay type: binding; conditions: HAP1, HEK293
T2 construct: the carboxy-terminal methyl group was chemically removed from cellular PP2Ac; endogenous in cells; host or cells: HAP1 wild type, HAP1 Lcmt-1-KO, HEK293Trex / HEK293T
Procedure: NIH3T3 mouse fibroblasts and human embryonic kidney cells (HEK293Trex) were grown in DMEM+10% FCS+2 mM L-glutamine (Sigma, G2150)+100 units/ml Penicillin/0.1 mg/ml Streptomycin at 37° C. in a 7.5% CO2 atmosphere. HAP1 wild type and HAP1 Lcmt-1-KO cells (Leucine carboxyl methyltransferase 1 deleted by CRISPR/Cas9; Horizon Discovery, #C631 and #HZGHC004373c001) were grown in Iscove's Modified Dulbecco's Medium (IMDM, Thermo Fischer Scientific, Life Technologies #12440053) supplemented with 10% (v/v) Fetal Calf Serum (FCS) (Sigma #F7524, lot 104M3333), GlutaMAX™ (Thermo Fischer Scientific, Life Technologies #35050-38, lot 1895829), and Penicillin-Streptomycin solution (Sigma, #P4333, lot 125M4781V) in a 5% CO2 atmosphere. Of note, HAP1 is a near-haploid human cell line that was derived from the chronic myelogenous leukemia (CML) cell line KBM-7 (Carette (2011), Nature 477(7364):340-3). For cell lysis, exponentially growing cells were washed once with ice-cold PBS, once with ice-cold IP-Wash buffer (20 mmol/l Tris pH 8.0, 135 mmol/l NaCl, 10% glycerol) and lysed on the petri-dish in ice-cold IP-Lyse buffer (18 mmol/l Tris pH 8.0, 122 mmol/l NaCl, 9% glycerol, 1% w/v NP-40) for 20 min at 4° C. rocking. Lysed cells were transferred to Eppendorf 1.5 ml tubes and centrifuged for 15 min at 14,000 rpm at 4° C. in a Beckman & Coulter Microfuge 18 centrifuge. The protein concentration was determined with the Protein Assay Dye Reagent (Biorad, 500-0006) and measurement of absorbance at 595 nm in a Hitachi U-2000 spectrophotometer. […]
To test these antibodies in the western blot analysis with methylated and non-methylated full-length PP2Ac the methyl group was chemically removed from cellular PP2Ac by treating lysates of the human cell line, HAP1, with NaOH, as described in Example 2. […] In agreement with the results of the NaOH experiments, […] of PP2Ac were detected in HAP1 cells that lack the PP2A methyltransferase LCMT-1 indicating the preference of these antibodies for non-methylated PP2Ac (FIG. 22). […]

[2] = biological target: T3, C-terminal PP2Ac peptides L309, Y307F, pY307, meL309 (Homo sapiens, UniProt P67775); test: ELISA with CGEPHVTRRTPDYFL peptides free or linked to BSA (scFv and recombinant 7C10-C5); assay type: binding; conditions: peptides free or linked to BSA
T3 construct: coated with C-terminal PP2Ac peptides either free or linked to BSA; BSA (carrier)
Procedure: Nunc Medisorp 96-well ELISA flat-bottom plates were coated with C-terminal PP2Ac peptides either free or linked to BSA. Specifically, the peptides were: unmodified L309 (CGEPHVTRRTPDYFL) (SEQ ID NO:49), Y307F (CGEPHVTRRTPDFFL) (SEQ ID NO:50), pY307 (CGEPHVTRRTPDpYFL) (SEQ ID NO:51) or carboxymethylated meL309 (CGEPHVTRRTPDYFL-CH3) (SEQ ID NO:49), on the ELISA plate at 8 μg/ml in TBS (free) or 1 μg/ml in TBS (linked to BSA) at 4° C. overnight. After washing twice with TBS, the wells were incubated with 2% BSA in TBS for 1 h at RT. After washing once with TBS, the wells were incubated with single clone hybridoma cell culture supernatant, clone 7C10-C5 1:50 (7C10 X63), recombinant single chain variable fragment of antibody 7C10-C5, undiluted (7C10 scFvs), or recombinant bivalent single chain variable fragment of antibody 7C10-C5, undiluted (7C10 bi-scFvs). After washing 3× with TBS, wells incubated with recombinant antibodies were incubated with monoclonal antibody 16B12, 1:10000 (recognizing the hemagglutinin tag on the recombinant antibody) in 1% BSA TBS 1 h at room temperature. After washing 3× in TBS, incubation with anti-mouse-HRP coupled secondary antibody for 1 h at RT was performed. Bound antibodies were detected by colorimetric reaction with 3,3′,5,5′-Tetramethylbenzidine as substrate, and absorbance was measured at 450 nm. Values were normalized to meL309 which was arbitrarily set to 1. Average and standard deviation of N=3 experiments are shown.
Nunc Medisorp 96-well ELISA flat-bottom plates were coated with peptides either free or linked to BSA, L309 (CGEPHVTRRTPDYFL) (SEQ ID NO:49) or meL309 (CGEPHVTRRTPDYFL-CH3) (SEQ ID NO:49), on the ELISA plate at 0.5 μg/ml in TBS (free) or […] in TBS (linked to BSA) at 4° C. over night. After washing twice with TBS, the wells were incubated with 2% BSA in TBS for 1 h at RT. After washing once with TBS, the wells were incubated with single clone hybridoma cell culture supernatant, clone 7C10-C5 1:50 (7C10 X63), or recombinant antibody 7C10-C5 undiluted (rec 7C10). After washing 3× with TBS, incubation with anti-mouse-HRP coupled secondary antibody for 1 h at RT was performed. Bound antibodies were detected by colorimetric reaction with 3,3′,5,5′-Tetramethylbenzidine as substrate, and absorbance was measured at 450 nm. Values were normalized to meL309 incubated with 7C10 X63, which was arbitrarily set to 1. Average and standard deviation of N=3 experiments are shown (FIG. 30).

T2 sequence (P67775 whole entry): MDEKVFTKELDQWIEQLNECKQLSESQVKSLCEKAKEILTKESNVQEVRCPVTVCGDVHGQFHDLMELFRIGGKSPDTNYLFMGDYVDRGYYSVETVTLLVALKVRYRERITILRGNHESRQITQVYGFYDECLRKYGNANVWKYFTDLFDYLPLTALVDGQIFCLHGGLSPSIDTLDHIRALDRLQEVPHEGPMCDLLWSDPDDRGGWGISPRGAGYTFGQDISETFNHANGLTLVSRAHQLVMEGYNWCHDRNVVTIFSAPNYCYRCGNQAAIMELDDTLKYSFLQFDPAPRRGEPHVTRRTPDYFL

B1: recombinant bivalent single chain variable fragment (scFv) of antibody 7C10-C5 (scFv)
scFv: DVLMTQTPLSLPVSLGDQASISCRSSQSIVHSNGNTYLEWYLQKPGQSPKLLIYKVSNRFSGVPDRFSGSGSGTDFTLKINRVEAEDLGVYYCFQGSHVPWTFGGGTKLEIKSSGGGGSGGGGGGSSRSSLDVQLQESGPGLVKPSQSLSLTCSVTGYSITSGYYWNWIRQFPGNKLEWMGYISYDGSNNYNPSLKNRISITRDTSKNQFFLKLNSVTTEDTATYYCAGRFAYWGQGTLVTVSAAKTTPPSVGSGSGSGSGSGSGSGSGSGSGSGSGSGSGSDVLMTQTPLSLPVSLGDQASISCRSSQSIVHSNGNTYLEWYLQKPGQSPKLLIYKVSNRFSGVPDRFSGSGSGTDFTLKINRVEAEDLGVYYCFQGSHVPWTFGGGTKLEIKSSGGGGSGGGGGGSSRSSLDVQLQESGPGLVKPSQSLSLTCSVTGYSITSGYYWNWIRQFPGNKLEWMGYISYDGSNNYNPSLKNRISITRDTSKNQFFLKLNSVTTEDTATYYCAGRFAYWGQGTLVTVSAAKTTPPSVTSGQAGQHHHHHHGAYPYDVPDYAS
notes: Two VL-linker-VH units joined by a (Gly-Ser)x15 linker, C-terminal 6xHis and HA tag; HEK293T supernatant, undiluted; Signal peptide (residues 1-22, before the first VL) left out by counting; also called 7C10 bi-scFvs; bivalent 7C10-C5 scFv
- binding result [1]: no binding (tested: undiluted supernatant)

B2: recombinant monovalent single chain variable fragment (scFv) of antibody 7C10-C5 (scFv)
scFv: DVLMTQTPLSLPVSLGDQASISCRSSQSIVHSNGNTYLEWYLQKPGQSPKLLIYKVSNRFSGVPDRFSGSGSGTDFTLKINRVEAEDLGVYYCFQGSHVPWTFGGGTKLEIKSSGGGGSGGGGGGSSRSSLDVQLQESGPGLVKPSQSLSLTCSVTGYSITSGYYWNWIRQFPGNKLEWMGYISYDGSNNYNPSLKNRISITRDTSKNQFFLKLNSVTTEDTATYYCAGRFAYWGQGTLVTVSAAKTTPPSVTSGQAGQHHHHHHGAYPYDVPDYAS
notes: VL - 19 aa linker - VH - 8 aa of CH1 - 6xHis - HA tag; secreted into HEK293T supernatant, used undiluted; also called 7C10 scFvs; monovalent 7C10-C5 scFv
- binding result [1]: no binding (tested: undiluted supernatant)

B3: recombinant 7C10-C5: recombinant 7C10-C5 antibody with mIgCK light chain and mIgG2a heavy chain (SEQ ID NO:123, 125) (protein)
light: MDMRVPAQLLGLLLLWLSGARCDVLMTQTPLSLPVSLGDQASISCRSSQSIVHSNGNTYLEWYLQKPGQSPKLLIYKVSNRFSGVPDRFSGSGSGTDFTLKINRVEAEDLGVYYCFQGSHVPWTFGGGTKLEIKADAAPTVSIFPPSSEQLTSGGASVVCFLNNFYPKDINVKWKIDGSERQNGVLNSWTDQDSKDSTYSMSSTLTLTKDEYERHNSYTCEATHKTSTSPIVKSFNRNEC
heavy: MYRMQLLSCIALSLALVTNSDVQLQESGPGLVKPSQSLSLTCSVTGYSITSGYYWNWIRQFPGNKLEWMGYISYDGSNNYNPSLKNRISITRDTSKNQFFLKLNSVTTEDTATYYCAGRFAYWGQGTLVTVSAAKTTAPSVYPLAPVCGDTTGSSVTLGCLVKGYFPEPVTLTWNSGSLSSGVHTFPAVLQSDLYTLSSSVTVTSSTWPSQSITCNVAHPASSTKVDKKIEPRGPTIKPCPPCKCPAPNLLGGPSVFIFPPKIKDVLMISLSPIVTCVVVDVSEDDPDVQISWFVNNVEVHTAQTQTHREDYNSTLRVVSALPIQHQDWMSGKEFKCKVNNKDLPAPIERTISKPKGSVRAPQVYVLPPPEEEMTKKQVTLTCMVTDFMPEDIYVEWTNNGKTELNYKNTEPVLDSDGSYFMYSKLRVEKKNWVERNSYSCSVVHEGLHNHHTTKSFSRTPGK
modifications: Amino acid sequence of the recombinant 7C10-C5 light chain; Amino acid sequence of the recombinant 7C10-C5 heavy chain
- detection of PP2Ac in untreated versus NaOH treated cell lysates (PP2Ac): only detected methylated PP2Ac in the untreated cell lysates but not in the NaOH treated lysates
- recognition of meL309 versus non-carboxymethylated peptides [2]: Specific for the α-Carboxymethylated PP2Ac
